The text below walks through data of US6790630 (NEW ENGLAND BIOLABS, dated 2004).

First the molecules themselves.
B1: Ov33, native 31-33 kDa antigen of Onchocerca volvulus adult worms (other)
chain: GVVKRYNKRFAGFNVAGIGGNAGCVVVDNKLFANSFFLRELTTEEQRELAQYIEDSNRYKEEVKESLEERRKGWQLARDGKEDSKVLSALAEKKLPKPPKKPSFCSAGDTTQYYFDGCMVQNDKIYVGRAYVRDLTPDEVTQLKTFDAKMTAYQKYLSSTIQKQVDSLFGEKSNLFNLFADTRTEATSQASDDATAGATTTQAPVEAPEPPHFCVAIY
B4: DiT33, native 31-33 kDa glycoprotein of Dirofilaria immitis (other)
chain: SVINRHNKRFAGFSVAGIGGTAGCVVVDNKLFANSFYLRDLTTEEQRELAQYVEDSNQYKEEVKTSLEERRKGWQLARHGEKDAKVLSSLAEKKFPKPPKKPSFCSAGDTTQYYFDGCMVQNNKIYVGRMYVRDLTSDEINQLKTFDAKMTAYQKYLSSSIQQQVDSLFGDKSNLFNLFTDTRHETSSQPSDATTISTTTQAPVEPPETPHFCIAIY
notes: also called doublet of 31 and 33 kDa; D. immitis homolog of Ov33

Assay [1] has as its target T1, Soybean agglutinin (SBA), biotinylated (UniProt P05046 33-285).
T1 construct: Lectin
The assay can be described thus: lectin blot of affinity purified antigen.

The target of assay [2] is T2, Concanavilin A (Con-A), biotinylated (UniProt P02866 30-281).
T2 construct: Lectin
The assay can be described thus: lectin blot of affinity purified antigen.

Assay [3] has as its target T3, Erythrina cristagalli lectin (ECL), biotinylated (Erythrina cristagalli, UniProt P83410 1-239).
T3 construct: Lectin
T3 sequence: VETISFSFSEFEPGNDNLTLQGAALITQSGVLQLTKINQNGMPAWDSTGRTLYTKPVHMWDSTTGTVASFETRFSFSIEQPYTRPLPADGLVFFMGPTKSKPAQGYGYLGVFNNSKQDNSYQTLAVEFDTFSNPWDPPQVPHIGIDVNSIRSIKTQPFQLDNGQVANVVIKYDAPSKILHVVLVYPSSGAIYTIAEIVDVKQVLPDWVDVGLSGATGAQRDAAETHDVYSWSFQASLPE
In words: lectin blot of affinity purified antigen.

Assay [4] addresses T4, Phaseolus vulgaris erthroagglutinin (PHA-E), biotinylated (Phaseolus vulgaris, UniProt P05088 22-275).
T4 construct: Lectin
The assay can be described thus: lectin blot of affinity purified antigen.

Assay [5] has as its target T5, Peanut agglutinin (PNA), biotinylated (UniProt P02872 24-259).
T5 construct: Lectin
T5 sequence: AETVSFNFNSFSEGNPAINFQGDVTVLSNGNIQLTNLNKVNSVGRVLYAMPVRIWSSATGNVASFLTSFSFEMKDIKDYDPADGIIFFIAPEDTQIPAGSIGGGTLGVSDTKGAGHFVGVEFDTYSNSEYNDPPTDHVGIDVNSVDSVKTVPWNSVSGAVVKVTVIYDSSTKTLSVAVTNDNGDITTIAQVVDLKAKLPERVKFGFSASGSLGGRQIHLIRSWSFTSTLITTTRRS
In words: lectin blot of affinity purified antigen.

The target in assay [6] is B4. In words: lectin blot, biotinylated lectin 20 µg/ml.
Assay [7] addresses B1. The assay can be described thus: lectin blot, biotinylated lectin 20 µg/ml.
Assay [8] has as its target B4. The assay can be described thus: lectin blot of affinity purified antigen.
In assay [9] the target is B1. In words: lectin blot of affinity purified antigen.

T1 sequence (P05046 33-285 limits assumed): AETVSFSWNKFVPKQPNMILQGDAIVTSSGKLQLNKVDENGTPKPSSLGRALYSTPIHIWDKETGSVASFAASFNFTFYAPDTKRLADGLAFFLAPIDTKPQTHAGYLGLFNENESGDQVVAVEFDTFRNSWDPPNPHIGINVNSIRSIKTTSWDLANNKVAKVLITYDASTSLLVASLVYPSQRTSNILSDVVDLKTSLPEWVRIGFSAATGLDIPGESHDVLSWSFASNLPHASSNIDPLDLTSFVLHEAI

Consider B1, for which the binding result in assay [1], in assay [2], in assay [3], in assay [4] and in assay [5] was “no binding (tested: 20 µg/ml)” throughout.

B2: Artpocarpus integrifolia (jacalin), biotinylated (other)
chain 1: GKAFDDGAFTGIREINLSYNKETAIGDFQVVYDLNGSPYVGQNHKSFITGFTPVKISLDFPSEYIMEVSGYTGNVSGYVVVRSLTFKTNKKTYGPYGVTSGTPFNLPIENGLIVGFKGSIGYWLDYFSMYLSL
chain 2: NEQSGKSQTVIVGSWGAKVS
In the case of B2, the binding result in assay [6] and in [7] was “binds” each time.

B3: Wheat germ agglutinin (WGA), biotinylated (other)
chain: QRCGEQGSNMECPNNLCCSQYGYCGMGGDYCGKGCQNGACWTSKRCGSQAGGATCTNNQCCSQYGYCGFGAEYCGAGCQGGPCRADIKCGSQAGGKLCPNNLCCSQWGFCGLGSEFCGGGCQSGACSTDKPCGKDAGGRVCTNNYCCSKWGSCGIGPGYCGAGCQSGGCDG
notes: Lectin
As for B3, the binding result in assay [8] and in assay [9] was “no binding (tested: 20 µg/ml)” in each case.

With B4, the binding result in [1], in assay [2], in assay [3], in [4] and in assay [5] was “no binding (tested: 20 µg/ml)” each time.
